Here are results for nine molecules from paper PMC12774752, “4E-BP1 differentially regulates translation of a subset of human mRNAs” (The Journal of Biological Chemistry, 2025).

No end group written: not given here. *: point of attachment. FITC = O=C1OC2(c3ccc(O)cc3Oc3cc(O)ccc32)c2ccc(NC(=S)*)cc21

As usually defined, the Kd is the equilibrium constant for the complex coming apart.

The chains are these.
B1: m7G p53B 5'UTR (structured_RNA)
RNA: AUGGAGGAGCCGCAGUCAGAUCCUAGCGUCGAGCCCCCUCUGAGUCAGGAAACAUUUUCAGACCUAUGGAAACUACUUCCUGAAAACAACGUUCUGUCCCCCUUGCCGUCCCAAGCA
modifications: 5' m7G cap
B2: m7G HIF-1alpha 5'UTR (structured_RNA)
RNA: AGUGCACAGUGCUGCCUCGUCUGAGGGGACAGGAGGAUCACCCUCUUCGUCGCUUCGGCCAGUGGUCGGGCUGGGCCCUGACAAGCCACCUGAGGAGAGGCUCGGAGCCGGGCCCGGACCCCGGCGAUUGCCGCCCGCUUCUCUCUAGUCUCACGAGGGGUUUCCCGCCUCGCACCCCCACCUCUGGACUUGCCUUUCCUUCUCUUCUCCGCGUGUGGAGGGAGCCAGCGCUUAGGCCGGAGCGAGCCUGGGGGCCGCCCGCCGUGAAGACAUCGCGGGGACCGAUUCACC
modifications: 5' m7G cap
B3: ApppG HIF-1alpha 5'UTR (structured_RNA)
RNA: B2 RNA
modifications: 5' ApppG cap (non-functional)
B4: m7G FGF-9 5'UTR (structured_RNA)
RNA: GAAACAGCAGAUUACUUUUAUUUAUGCAUUUAAUGGAUUGAAGAAAAGAACCUUUUUUUUUCUCUCUCUCUCUGCAACUGCAGUAAGGGAGGGGAGUUGGAUAUACCUCGCCUAAUAUCUCCUGGGUUGACACCAUCAUUAUUGUUUAUUCUUGUGCUCCAAAAGCCGAGUCCUCUG
modifications: 5' m7G cap
B5: ApppG FGF-9 5'UTR (structured_RNA)
RNA: B4 RNA
modifications: 5' ApppG cap (non-functional)
B6: m7G p53A 5'UTR (structured_RNA)
RNA: UCUAGAGCCACCGUCCAGGGAGCAGGUAGCUGCUGGGCUCCGGGGACACUUUGCGUUCGGGCUGGGAGCGUGCUUUCCACGACGGUGACACGCUUCCCUGGAUUGGCAGCCAGACUGCCUUCCGGGUCACUGCC
modifications: 5' m7G cap
B7: ApppG p53A 5'UTR (structured_RNA)
RNA: B6 RNA
modifications: 5' ApppG cap (non-functional)
B8: m7G beta-actin 5'UTR (structured_RNA)
RNA: GGACCGCCGAGACCGCGUCCGCCCCGCGAGCACAGAGCCUCGCCUUUGCCGAUCCGCCGCCCGCCACACCCGCCGCCAGCUCAC
modifications: 5' m7G cap
B9: fluorescein-labeled 4E-BP1 peptide (peptide)
peptide: PGGTRIIYDRK(FITC)FLMECRNSP
notes: also called FITC-4E-BP1 peptide; 4E-BP1-FITC-Peptide; source: synthetic peptide, bought: GenScript (>=98% purity)

T2 sequence (Q04637 557-1599, chain 1 of 2): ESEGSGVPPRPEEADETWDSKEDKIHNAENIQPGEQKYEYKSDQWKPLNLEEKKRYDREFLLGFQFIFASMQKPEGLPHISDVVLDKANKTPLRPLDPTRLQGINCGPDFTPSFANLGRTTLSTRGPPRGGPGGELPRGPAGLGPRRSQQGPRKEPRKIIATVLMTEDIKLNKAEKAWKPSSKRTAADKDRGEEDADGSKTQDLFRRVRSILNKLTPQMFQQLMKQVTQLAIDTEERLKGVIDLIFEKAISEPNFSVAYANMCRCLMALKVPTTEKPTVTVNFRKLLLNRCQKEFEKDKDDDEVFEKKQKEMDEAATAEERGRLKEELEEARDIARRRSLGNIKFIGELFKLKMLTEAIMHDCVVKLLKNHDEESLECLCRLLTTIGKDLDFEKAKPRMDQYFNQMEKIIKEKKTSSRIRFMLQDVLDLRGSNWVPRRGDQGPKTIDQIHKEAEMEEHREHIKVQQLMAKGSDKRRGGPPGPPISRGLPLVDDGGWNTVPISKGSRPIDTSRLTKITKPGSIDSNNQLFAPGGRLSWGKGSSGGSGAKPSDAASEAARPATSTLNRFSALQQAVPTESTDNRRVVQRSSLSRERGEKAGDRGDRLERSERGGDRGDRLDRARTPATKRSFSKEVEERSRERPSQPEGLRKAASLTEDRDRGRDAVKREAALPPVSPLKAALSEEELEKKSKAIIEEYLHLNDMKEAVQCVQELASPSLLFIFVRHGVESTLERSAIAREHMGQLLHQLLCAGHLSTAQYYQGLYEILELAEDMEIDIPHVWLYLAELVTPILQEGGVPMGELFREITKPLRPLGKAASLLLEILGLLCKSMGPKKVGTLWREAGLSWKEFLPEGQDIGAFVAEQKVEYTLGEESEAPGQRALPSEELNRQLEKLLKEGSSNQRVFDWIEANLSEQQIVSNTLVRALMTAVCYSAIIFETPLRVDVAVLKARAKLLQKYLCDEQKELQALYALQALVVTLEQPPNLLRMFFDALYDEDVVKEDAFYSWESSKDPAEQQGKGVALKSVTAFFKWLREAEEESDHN
T2 sequence (P60842 whole entry, chain 2 of 2): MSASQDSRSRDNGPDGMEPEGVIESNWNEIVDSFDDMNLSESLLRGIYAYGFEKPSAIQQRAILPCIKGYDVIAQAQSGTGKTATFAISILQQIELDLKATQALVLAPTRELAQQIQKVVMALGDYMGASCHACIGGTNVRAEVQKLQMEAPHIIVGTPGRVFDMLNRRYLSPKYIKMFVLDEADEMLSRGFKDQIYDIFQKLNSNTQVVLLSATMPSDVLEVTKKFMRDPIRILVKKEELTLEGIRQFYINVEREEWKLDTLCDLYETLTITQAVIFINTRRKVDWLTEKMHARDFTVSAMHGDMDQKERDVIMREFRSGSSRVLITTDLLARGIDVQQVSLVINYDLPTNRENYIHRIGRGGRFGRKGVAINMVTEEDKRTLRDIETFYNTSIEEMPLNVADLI
Sequence of 4E-BP1 (Q13541 whole entry): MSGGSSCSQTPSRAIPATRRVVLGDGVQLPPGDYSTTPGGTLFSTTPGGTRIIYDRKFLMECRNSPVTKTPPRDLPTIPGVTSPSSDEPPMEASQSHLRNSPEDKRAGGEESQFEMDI
Sequence of eukaryotic initiation factor 4E (eIF4E) (P06730 whole entry): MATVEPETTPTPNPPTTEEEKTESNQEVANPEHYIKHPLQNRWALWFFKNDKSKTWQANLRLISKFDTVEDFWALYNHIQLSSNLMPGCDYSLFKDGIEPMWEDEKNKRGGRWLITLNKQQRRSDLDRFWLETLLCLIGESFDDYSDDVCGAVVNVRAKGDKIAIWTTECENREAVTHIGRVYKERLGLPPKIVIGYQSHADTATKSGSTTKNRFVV

The target of the first data set is T1, eIF4GI557-1599 (human, UniProt Q04637 557-1599). Kind of data set: fluorescence anisotropy; mRNA pre-bound by eIF4E•4E-BP1; 20 mM HEPES-KOH pH 7.5, 200 mM KCl, 1 mM MgCl2, 25 °C; 10 nM labeled mRNA; pre-assembly with 0.5 uM eIF4E and 1 uM 4E-BP1. As to conditions: protein: recombinant; tags: N-terminal 6xHis, TEV-cleaved; label: 3' fluorescein; structured 5'UTR. Background: Fluorescence polarisation rises when a labelled molecule tumbles more slowly, as on binding a larger partner.
T1 sequence (Q04637 557-1599): as the sequence (Q04637 557-1599, chain 1 of 2) above
For the molecule B1, the Kd stood at 18 ± 0.3 nM.

For B2, the Kd amounted to 15 ± 3.4 nM.

As to B3, the Kd is 25 ± 1.8 nM.

B4: the Kd worked out at 24 ± 0.9 nM.

Consider B5, for which the Kd was 13 ± 0.6 nM.

Turning to B6, the Kd was 31 ± 5.9 nM.

Regarding B7, the Kd stood at 25 ± 1.1 nM.

A further data set concerns the target T2, eIF4GI557-1599;eIF4A (human;human?, UniProt Q04637;P60842 557-1599;1-406, |). The description is as above. Conditions: protein: recombinant;recombinant, tags: N-terminal 6xHis, TEV-cleaved;N-terminal His-MBP, copies: 1;1, label: 3' fluorescein, structured 5'UTR.
With B1, the Kd is 21 ± 2.2 nM.

Consider B2, for which the Kd worked out at 20 ± 1.3 nM.

For B3, the Kd stood at 19 ± 0.6 nM.

As for B4, the equilibrium dissociation constant (Kd) was determined as 23 ± 1.3 nM.

Turning to B6, the Kd stood at 33 ± 0.7 nM.

In the case of B7, the Kd amounted to 20 ± 2 nM.

Still in this data set, the particulars now being: protein: recombinant;recombinant, tags: N-terminal 6xHis, TEV-cleaved;N-terminal His-MBP, copies: 1;1, label: 3' fluorescein, unstructured control.
Consider B8, for which the binding result is reported as “no binding”.

For another data set, the target named is T2, eIF4GI557-1599;eIF4A. Kind of data set: fluorescence anisotropy; ATP; mRNA pre-bound by eIF4E•4E-BP1; 20 mM HEPES-KOH pH 7.5, 200 mM KCl, 1 mM MgCl2, 25 °C; 10 nM labeled mRNA; pre-assembly with 0.5 uM eIF4E and 1 uM 4E-BP1. As to conditions: protein: recombinant;recombinant, tags: N-terminal 6xHis, TEV-cleaved;N-terminal His-MBP, copies: 1;1, label: 3' fluorescein, structured 5'UTR.
For the molecule B1, the Kd was found to be 22 ± 1.1 nM.

On to B3, for which the dissociation constant (Kd) was determined as 24 ± 4.3 nM.

With B4, the Kd stood at 24 ± 1.5 nM.

In the case of B5, the dissociation constant Kd is 18 ± 1 nM.

On to B6, for which the Kd amounted to 35 ± 1.3 nM.

Consider B7, for which the Kd stood at 16 ± 0.8 nM.

For another data set, the target named is T2, eIF4GI557-1599;eIF4A. Kind of data set: fluorescence anisotropy; ATP; mRNA pre-bound by eIF4E•4E-BP1; text gives error 1.5; 20 mM HEPES-KOH pH 7.5, 200 mM KCl, 1 mM MgCl2, 25 °C; 10 nM labeled mRNA; pre-assembly with 0.5 uM eIF4E and 1 uM 4E-BP1. As to conditions: protein: recombinant;recombinant, tags: N-terminal 6xHis, TEV-cleaved;N-terminal His-MBP, copies: 1;1, label: 3' fluorescein, structured 5'UTR.
As to B2, the dissociation constant Kd worked out at 21 ± 0.5 nM.

The next data set concerns the target eukaryotic initiation factor 4E (eIF4E) (human, UniProt P06730 1-217). Kind of data set: fluorescence polarisation; fluorescence anisotropy; 20 nM FITC-labelled 4E-BP1 peptide, free or preincubated with 10 nM eIF4E for 20 min at 25 °C, titrated with protein (eIF4E: 200 ul of 20 nM peptide with 2.5 uM eIF4E); no mRNA; Hill-equation fit. Conditions: both partners purified.
Molecule B9 registered a Kd of 5 ± 3.7 nM.

For a further data set, the target named is T2, eIF4GI557-1599;eIF4A. Kind of data set: fluorescence anisotropy; mRNA pre-bound by eIF4E•4E-BP1; text gives error 1.0; 20 mM HEPES-KOH pH 7.5, 200 mM KCl, 1 mM MgCl2, 25 °C; 10 nM labeled mRNA; pre-assembly with 0.5 uM eIF4E and 1 uM 4E-BP1. As to conditions: protein: recombinant;recombinant, tags: N-terminal 6xHis, TEV-cleaved;N-terminal His-MBP, copies: 1;1, label: 3' fluorescein, structured 5'UTR.
Turning to B5, the Kd came out at 15 ± 0.3 nM.

For a further data set, the target named is T1, eIF4GI557-1599. Kind of data set: fluorescence anisotropy; mRNA pre-bound by eIF4E•FITC-4E-BP1 peptide (label on peptide); text gives error 1.5; 20 mM HEPES-KOH pH 7.5, 200 mM KCl, 1 mM MgCl2, 25 °C; 10 nM labeled mRNA; pre-assembly with 0.5 uM eIF4E and 1 uM 4E-BP1. As to conditions: protein: recombinant; tags: N-terminal 6xHis, TEV-cleaved; label: 3' fluorescein; structured 5'UTR.
On to B7, for which the Kd came to 35 ± 0.5 nM.

For a further data set, the target named is eIF4E (human, UniProt P06730 1-217). Kind of data set: fluorescence anisotropy; 20 mM HEPES-KOH pH 7.5, 200 mM KCl, 1 mM MgCl2, 25 °C; 10 nM labeled mRNA; pre-assembly with 0.5 uM eIF4E and 1 uM 4E-BP1. Conditions: protein: recombinant; tags: N-terminal polyHis, TEV-cleaved; label: 3' fluorescein; structured 5'UTR.
Sequence of eIF4E (P06730 whole entry): as the sequence (P06730 whole entry) above
B1: the Kd was 54 ± 2.3 nM.

B2: the Kd worked out at 56 ± 1.5 nM.

Take B3: the Kd is 199 ± 1.5 nM.

As for B4, the Kd came out at 72 ± 1.6 nM.

B5: the Kd is 138 ± 4.6 nM.

In the case of B6, the Kd stood at 59 ± 7.5 nM.

Take B7: the Kd was 186 ± 0.8 nM.

The same data set, now with this note: protein: recombinant; tags: N-terminal polyHis, TEV-cleaved; label: 3' fluorescein; unstructured control.
B8: the Kd was determined as 28 ± 1.8 nM.

For another data set, the target named is T1, eIF4GI557-1599. The data set is described as above. Conditions: protein: recombinant; tags: N-terminal 6xHis, TEV-cleaved; label: 3' fluorescein; structured 5'UTR.
For the molecule B1, the Kd was determined as 18 ± 3.1 nM.

As to B2, the equilibrium dissociation constant (Kd) amounted to 22 ± 0.5 nM.

Regarding B3, the Kd is 67 ± 1.8 nM.

In the case of B4, the Kd is 20 ± 2 nM.

As for B5, the Kd is 28 ± 0.7 nM.

Regarding B7, the equilibrium dissociation constant (Kd) stood at 81 ± 1.3 nM.

Staying with this data set, now noted: protein: recombinant; tags: N-terminal 6xHis, TEV-cleaved; label: 3' fluorescein; unstructured control.
Consider B8, for which the binding result is on record as “no binding”.

In another data set the target is eIF4E;4E-BP1 (human;human, UniProt P06730;Q13541 1-217;1-118, |). The description is as above. As to conditions: protein: recombinant;recombinant, tags: N-terminal polyHis, TEV-cleaved;N-terminal 6xHis, copies: 1;1, label: 3' fluorescein, structured 5'UTR.
Sequence of eIF4E;4E-BP1 (P06730 whole entry, chain 1 of 2): as the sequence (P06730 whole entry) above
Sequence of eIF4E;4E-BP1 (Q13541 whole entry, chain 2 of 2): as the sequence (Q13541 whole entry) above
For the molecule B1, the Kd amounted to 28 ± 2.3 nM.

As for B2, the Kd came to 15 ± 3.4 nM.

Turning to B3, the Kd stood at 52 ± 0.5 nM.

With B4, the Kd was 32 ± 3.9 nM.

Turning to B5, the Kd is 87 ± 2 nM.

B6: the Kd is 13 ± 1.1 nM.

As to B7, the Kd worked out at 45 ± 1.6 nM.

Staying with this data set, now noted: protein: recombinant;recombinant, tags: N-terminal polyHis, TEV-cleaved;N-terminal 6xHis, copies: 1;1, label: 3' fluorescein, unstructured control.
For B8, the Kd worked out at 12 ± 0.6 nM.

A further data set has as its target 4E-BP1 (human, UniProt Q13541 1-118). The data set is described as above. As to conditions: protein: recombinant; tags: N-terminal 6xHis, TEV-cleaved; label: 3' fluorescein; structured 5'UTR.
For B1, the binding result is “no binding”.

Regarding B2, the binding result is recorded as “no binding”.

Turning to B3, the binding result was “no binding”.

B4: the binding result is given as “no binding”.

As for B5, the binding result was “no binding”.

Consider B6, for which the binding result is reported as “no binding”.

Take B7: the binding result is “no binding”.

Still in this data set, the particulars now being: protein: recombinant; tags: N-terminal 6xHis, TEV-cleaved; label: 3' fluorescein; unstructured control.
Consider B8, for which the binding result is recorded as “no binding”.

The next data set addresses T1, eIF4GI557-1599. Kind of data set: fluorescence anisotropy; text gives error 3.1; 20 mM HEPES-KOH pH 7.5, 200 mM KCl, 1 mM MgCl2, 25 °C; 10 nM labeled mRNA; pre-assembly with 0.5 uM eIF4E and 1 uM 4E-BP1. Conditions: protein: recombinant; tags: N-terminal 6xHis, TEV-cleaved; label: 3' fluorescein; structured 5'UTR.
Regarding B6, the dissociation constant Kd is 44 ± 1 nM.

The target of a further data set is T1, eIF4GI557-1599. Kind of data set: fluorescence anisotropy; mRNA pre-bound by eIF4E•FITC-4E-BP1 peptide (label on peptide); 20 mM HEPES-KOH pH 7.5, 200 mM KCl, 1 mM MgCl2, 25 °C; 10 nM labeled mRNA; pre-assembly with 0.5 uM eIF4E and 1 uM 4E-BP1. Conditions: protein: recombinant; tags: N-terminal 6xHis, TEV-cleaved; label: 3' fluorescein; structured 5'UTR.
In the case of B1, the Kd was found to be 47 ± 0.7 nM.

Turning to B2, the Kd turned out to be 21 ± 0.7 nM.

With B3, the Kd came out at 30 ± 3.1 nM.

For the molecule B4, the Kd amounted to 32 ± 0.3 nM.

B5: the Kd is 25 ± 1 nM.

With B6, the Kd came to 29 ± 1.3 nM.
